# Source: paper PMC9973045, “The Drug-Induced Interface That Drives HIV-1 Integrase Hypermultimerization and Loss of Function” (mBio, 2023)
# Target: the molecule itself
# Assay: SEC-MALS; SEC-MALLS of isolated CTDs; Superdex-75 Increase 10/300; 0.5 M NaCl, 25 mM Tris-HCl pH 7.5, 3 mM NaN3, 0.5 mM TCEP; 25°C; loaded at 8, 4, 2, 1 or 0.5 mg/mL; dimer to monomers
protein,measurement,value
"isolated HIV-1 IN CTD (wild type), IN residues 220 to 270 (domain or fragment, HIV-1 integrase (IN) carboxyl-terminal domain, residues 220 to 270, lacking the C-terminal tail; numbers count on: the mature integrase (IN residues); A prior drug-free HIV-1 IN CTD structure is cited as PDB 6T6E; also called carboxyl-terminal domain; source: E. coli BL21-CodonPlus (DE3), purified (Ni-NTA, HiTrap SP, SEC); not shown: His6-Sumo, N-terminal, cleaved) IQNFRVYYRDSRDPVWKGPAKLLWKGEGAVVIQDNSDIKVVPRRKAKIIRD",stoichiometry N,2
